Source: PMC3702631 (Structure (London, England : 1993), 2013)

B1: full-length mouse TBK1 (GST tag cleaved) (enzyme, UniProt Q9WUN2 1-729, looked up)
chain: MQSTSNHLWLLSDILGQGATANVFRGRHKKTGDLYAVKVFNNISFLRPVDVQMREFEVLKKLNHKNIVKLFAIEEETTTRHKVLIMEFCPCGSLYTVLEEPSNAYGLPESEFLIVLRDVVGGMNHLRENGIVHRDIKPGNIMRVIGEDGQSVYKLTDFGAARELEDDEQFVSLYGTEEYLHPDMYERAVLRKDHQKKYGATVDLWSVGVTFYHAATGSLPFRPFEGPRRNKEVMYKIITGKPSGAISGVQKAENGPIDWSGDMPLSCSLSQGLQALLTPVLANILEADQEKCWGFDQFFAETSDVLHRMVIHVFSLQHMTAHKIYIHSYNTAAVFHELVYKQTKIVSSNQELIYEGRRLVLELGRLAQHFPKTTEENPIFVTSREQLNTVGLRYEKISLPKIHPRYDLDGDASMAKAVTGVVCYACRTASTLLLYQELMRKGVRWLVELVKDDYNETVHKKTEVVITLDFCIRNIEKTVKVYEKLMKVNLEAAELGEISDIHTKLLRLSSSQGTIESSLQDISSRLSPGGLLADTWAHQEGTHPRDRNVEKLQVLLNCITEIYYQFKKDKAERRLAYNEEQIHKFDKQKLYYHATKAMSHFSEECVRKYEAFKDKSEEWMRKMLHLRKQLLSLTNQCFDIEEEVSKYQDYTNELQETLPQKMLAASGGVKHAMAPIYPSSNTLVEMTLGMKKLKEEMEGVVKELAENNHILERFGSLTMDGGLRNVDCL
B2: mouse TBK1 C-terminal truncation, residues 1-657 (GST tag cleaved) (domain or fragment, UniProt Q9WUN2 1-657, looked up)
chain: MQSTSNHLWLLSDILGQGATANVFRGRHKKTGDLYAVKVFNNISFLRPVDVQMREFEVLKKLNHKNIVKLFAIEEETTTRHKVLIMEFCPCGSLYTVLEEPSNAYGLPESEFLIVLRDVVGGMNHLRENGIVHRDIKPGNIMRVIGEDGQSVYKLTDFGAARELEDDEQFVSLYGTEEYLHPDMYERAVLRKDHQKKYGATVDLWSVGVTFYHAATGSLPFRPFEGPRRNKEVMYKIITGKPSGAISGVQKAENGPIDWSGDMPLSCSLSQGLQALLTPVLANILEADQEKCWGFDQFFAETSDVLHRMVIHVFSLQHMTAHKIYIHSYNTAAVFHELVYKQTKIVSSNQELIYEGRRLVLELGRLAQHFPKTTEENPIFVTSREQLNTVGLRYEKISLPKIHPRYDLDGDASMAKAVTGVVCYACRTASTLLLYQELMRKGVRWLVELVKDDYNETVHKKTEVVITLDFCIRNIEKTVKVYEKLMKVNLEAAELGEISDIHTKLLRLSSSQGTIESSLQDISSRLSPGGLLADTWAHQEGTHPRDRNVEKLQVLLNCITEIYYQFKKDKAERRLAYNEEQIHKFDKQKLYYHATKAMSHFSEECVRKYEAFKDKSEEWMRKMLHLRKQLLSLTNQCFDIEEEVSKYQDYTNELQET

Biological target: the molecule itself
Experiment: SEC

| Protein | stoichiometry N |
| --- | --- |
| B1 | 2 |
| B2 | 2 |
